Data published in a protein production outcome set (Wang et al. 2014).

Assay: label from the status in PepcDB records

Sequence: MALKDTGSGGSTILPISEMVSASSSPGAPLAAAPGPCAPSPFPEVVELNVGGQVYVTKHSTLLSVPDSTLASMFSPSSPRGGARRRGDLPRDSRARFFIDRDGFLFRYVLDYLRDKQLALPEHFPEKERLLREAEFFQLTDLVKLLSPKVTKQNSLNDECCQSDLEDNVSQGSSDALLLRGAAAGAPSGSGAHGVSGVVGGGSAPDKRSGFLTLGYRGSYTTVRDNQADAKFRRVARIMVCGRIALAKEVFGDTLNESRDPDRQPEKYTSRFYLKFTYLEQAFDRLSEAGFHMVACNSSGTAAFVNQYRDDKIWSSYTEYIFFRPPQKIVSPKQEHEDRKRDKVTDKGSESGTSCNELSTSSCDSHSEASTPQDNPANTQQAAAHQPNTLTLDRPSRKAPVQWMPPPDKRRNSELFQSLISKSRETNLSKKKVCEKLSVEEEMKKCIQDFKKIHIPDCFPERKRQWQSELLQKYGL
- protein production: failed

Sequence: MALLAIDLDMFGHGSAGQVLGRTDVDRVEYQYSTKSLLSIYIFYEETCGFFIDEEKKVFVVFELDESQAYKYAYIIGENICLKKLDLGEVRTFSCPIVCSSSYVPS
- protein production: failed

Sequence: MALMSDKFLSIVIPAYNSEKYIEKNLMFLSRQTSNNFEVIVVDDGSTDNTCEVSEACLENFKINHRVIRCEENRGQSVARNIGINYSRGKYILFLDSDDFAENNLVQILERNMFNEPDIVFFDYKRIKEGDSVNVNIAQNFEFGKIKSGEEVFNAYKDNKIRLWTGSLVYNKEFLNKNKLRFLEGAHGAEDLNFIFKALLSSKKVRGIEDSLVFYCQRGDSLTNNPDIYKNITVVESMEDVAKFIDENKLDKKLKEAIEKEFTCEHIMYQILGYLNSETKKDTLSVLKNKNVKKYLKKATIKTNRYGRSMYTYMKMAAYFPNLFIKTYLKNTGKLEHHHHHH
- protein production: not failed

Sequence: MALNTNQLFAYLNRGDIAEFKFSPLFTTLFFPNVATFSTQNIMLDTLDIEEVTMSAFCSPMVGSQVQRDKGYETSTIKPGYMKPKHEIDPTKTIMRMAGEDPAQLNDPTYRRMRLITGNMRRQINAIKARVEWLAVNAVTTGKNIIEGEGIERYEIDWKIPEKNIIEQADGKKWSEQDKETHYPIYDIELYADQAGCPANVMIMGAEVWRTLRSFKKFRELYDLSRGSESAAELACKNLGEVVSFKGYLGDLALIVYSGKYTDSDGTEKYFLEPDLLVLGNTNNKGLVAYGAIMDQEAVRTGATQNMFYPKNWIEDGDPAIEYVQTHSAPQPVPADIRKFVTVKIA
- protein production: not failed

Sequence: MALPDRRAEGVAASLAGALIPAFLAAQDRIIEMVPFRTSATLFAFVLTIVFLAFALRVLFSFRDVRSAAVETALFATGFLYVPLLLTHLAWLRALPDGVGWIFLVLVIVMSGDTAAYYVGSNLGRRKLYPSVSPNKSVEGAIGGLLGSLAGTFVARLTFFPGLTVLDCIATALLLGVLGQVGDLFESLLKRSFGVKDSGTIVPGHGGILDRLDSILFAVPAAYYYALFVFMNR
- protein production: failed

Sequence: MALPPILRDRLRLPVIASPLFIISNPDLVIAQCKAGIVGSFPSLNARPLSQLDEWLARITEELAAWDKANPDMPSAPFAVNQIVHKTNNRLEDDIAMCVKYKVPLVITSLGAREDVNQAIHSYGGITLHDVITDRFARKAIEKGADGLIPVAAGAGGHAGTLSPFALIQEIRQWFDGPVALSGSIASGRSILAAQAMGADLAYVGSAFIATKEANAVEGYKQMIVDSKADDILYSNLFTGVHGNYLRPSVIKAGLDPENLPESDPSKMNFGSGGNQDAKAWRDIWGCGQGIGAIDNVLTAGELVAKFAAEYEQAKAELAAKTALTAGKHLAFAAE
- protein production: failed

Sequence: MALPPYDPNFKFAFSLGTIAKHQDYDESASAAVVALDLISSARFALKLDSVYTEYSAKYVVDNAAGSHSGRKLTVKDCLEFALNKGGIPKAEDWPRLGSVITPPSSYKPDLVSMKGQVIEPQTIEEACDMVVDQPVGAKLHVFKPHIELQQDASAITGIYCGTSGEPASYVGLRDAIIVGVEKIQGKSIGTVKVWYKKFIFLKVAMSRWFQLYSPDGTHTGIKRTDYLVDFCVPRLSMD
- protein production: failed

Sequence: MALQLGPHELQHVFSFLEARDLLRAAQVNKVWNEVSMTNELWRQLCLRRWAPCKALPVVLGTQTWRQYYFCRSELEFRVKSGRPQDFICKAISGHTGTIDQLAYVSPHEYRFDEKARSVVCTVSSDCTVRAWDLQEGTEMWSSPVQPAPLVNLVAYPQLQLVVTVDTQGLIRGWNTDTGSEWAFFSLPTSCSSMEACDHPEGSFLLVACAEGTLYTMTVPQLQVVFRVATFPHTPVSLMCSPDKQWVLVSAQDSDLGPKVFYTQPLLHPSEDRLPASATLPIRLSSRACWAPDEAARLMVTHRDDSGVHLVITTFELKANKSRDRVSILAQQLASFPLPDTMTPHLMQGHGSQVILLTSGSELVLFNIHGLQLMAFQDHQKPITSVWVDPDRVITAALDLSLCVYVWNKENTSPILKSCYHLLGGSHRWASGFTHVKSDSRSIAGVEARSTGTSILRSYCYKVQLG
- protein production: failed

Sequence: MALSIIENGKKLESTIDFSNFLKEFKKYRLRVLLVVLAITLAAFPLINGMTPQYTATATIVLKAKTDNSTPIDQVEDFDATQAEYYPTQAELLQSKTVIEAAAKKLDLINSPIFEDEDKDENIPQSEEEHLYSIVKAIKKKLSISPVRFSQLVHVSYESKDSDMSALVANAVVESYIEQQEQRKIEKTQQAQQWNNTRMSELKEKIKQQKADIDKFLSDNGLLTYQGVDGFETEQLALVNDRLATAKEKRITAKANYNTISEALGYPLEDVATLPSISNHAQLQDLRIALIQAKRTLFDLQKMYGPKNRQILEANAQIKAIELQTTALLKELKTGLYKEYQAAIERENKYRALLAEQKKDFTALAAKKDTYNTMKADLDKTQELYEKIFLRSKEQELTVLYREPVARLLDAATPPHKPSKPNKALLLIMVCAMTIIFSLLFIIIKSALNKSINNLTQVNTRLGLQGIGELISLNYIDELALFTKNFFKNSYSAETVHAIRTTILLDDKPWPIIGLTSTESTESNELNSYLLAYSFSQDRSTLLIDLDYRKEISLTEAILMQKENEIDAKKAENSDDFETVPTSTVMGVAEALEQKHPINDCLIKIENNLTFLPRGTLTETPLITLASEELGRQLKELSKQFEQVIVNLPAMTESKDAQLIARHLSGVIYTVQAGELSANHILANIEKVKQVQTPIMGVILTDVQNDELETEEAKQQLIHQNDDILG
- protein production: failed

Sequence: MALTEEEKSINIVDLFIYLIAHWKWFVLSILLFGGYFWYSYCETPFVYSRTAIVMIKTPANSRSAMQLNNADFIGQVNVASEILQFKSKELMRKVIDRLHADVSYMVRDGLRPRELYTDSPVRVAFLEAGLDEVCSLSVIPKNKQQVELADFSLDELEQRKTVNLNDTVDTPLGKLIVFTAENYSESYFDRPIKVTSKSREGMVAFWLSNLTIRQMSGDAALLSMTMNDLSPTRAADILDMLITVYNEEAIKDKNRISVNTAEFIKERLQIIEHELGSVETDIEDLKRANNGVDINTVAGMYIQDSRQYESSIKELDTQLQLVSFIKQYLQDSNKDDELIPSNIGLSDLSIESQISRYNETLLRRNRLVSGSSSNNPVVQELNRIMQTMKQNIYMAVDNLSKSLRLKKQDYMRQESHVRQKVQAVPGKQREMLSIERQQKVKESLYIFLLNKREENALSQAMVDNNARILDPVSGSNLPISPNKYKKMILGVGCGIIVPSVILLLILMLDTRVHNRKEVEAVVSAPFLADIPQTAKASVDAHEVVVRARGLDPLSEAFRILRTNLGFMLSQAQDHKIITLTSFNIGAGKTFVSVNLAASLVQTKKKVLILDLDLRKGKMSEMAHSKHVKGVAHYLSNPSIVVDDLILRDAFGEGLDLIPIGVIAPNPTELLLSRRLDELMDRLRELYDYIIVDNVPIGLVADASVVNRISDLTLFIVRVGKIDRRQLPELERLYQEHKLTNMAVVLNGTKKGSSGYGYGYGYGQGYGYKNAEKKKGLFGRKKKKSRK
- protein production: failed

Sequence: MALTSGQVGNLLNAFDSHGGHFQTQMAFRLMWLTLTRANESVQARWDEFDLANGLWKIPKERMKARREHLLPLPRQAVSILTTMQPITGQSTYVFPNRDDRHKPMSDAAFRQALKKLGWATIYSPHGTRTTGSTRLNEMGLEHHHHHH
- protein production: failed

Sequence: MAMALFQSAPHSLCILRLSAIGDVCNTIAAVQAIQRQWPQTRITWVTGKLEAELIQSLPDIQVIVFDKKLGWRAYTQLWQQLKSERFDALLHMQYAFRASIATLGIKARYKLGFDAARSQDFQTWFTNVKVPSPDKMHVLDGLLAFVEHLGIRDIEPKWSLTCQPDDLTWAEAQFQPEQPRLVVVPGASKAYKNWTAEGYAAVIEHAQQQGWQVILAGSPAQVERDLAAQVEQALAHPVLNLVGKSTLQQMLALLAKADLVIAPDTGPAHMANAMHTPIIGLYAHHNPERTGPYHYRHYVVSAYQEALLAETGKMPQQVDWRTRVKDPNAMQRITAQQVIAMFERAAADIMATQVND
- protein production: failed

Sequence: MAMNEIALFKGVRIQPYQKYIDFMFASVLAFIFLVYRIYILFIDYKSVNKKLDILTLFAYFKPHLLYLLIGTAIIFVICKLIAQFLIRFKTKDLAEMIETQGFHNRTVIKKTTEYIPIDYKQTEYDYYPTMFYKRGKKSFVIHIKKDGSRFQDNYLELETIIEPMFNSELVEKKHIGRYLRYEFMPLKYKKRIVMNGEQESNTIFYDTKIAITHQITWDFVKAPHGLVTGITGGGKTYFLFYVIRELFRRHSEVRLLDPKVSDLSFMKRVIGDDKVADTKGQILKQLREANNEMEERFRLMNDSSDYKIGNDFRNFDMRPYFIIFDEVTAFTSTLDKKELQEMNDYLINIIMKGRQAGVFMFLTAQRPDADVIKGNVRDQLGLRVSLGNLSNDGYRMTFGQTDKEFQTIHDSDIGRGYISILGQYNEPILFDAPLMEQYDFVEDVKQILNKE
- protein production: failed

Sequence: MAMVASVSMAFVLVFCTILLFHFVQQSRFTTATQLESIARSVREPLSAAILKADIPEAEAILSRIQPAGIVSRADVVLPNQFQALRMRFIPERPVPVTVTRLFELPVQISLPIYSLERPANPQPLAYLVLQADSYRMYKFVMSALATLVTAYLLLVLMLTVALTWCINRLMVRPLRRIARELNDLSQQERLGHQLTLPRLHHDDEIGMLVRSYNRNQQSLVRQHDELSIQSTRFPVSELPNKAFLLAMLEQTVARPQSAALIVVACETLQDAAGVLKESQREMLLLTLVEKLRAAIPPQMVLAQVSGYDFAILADGLAEPWQAVTLSKQVLTIINERLPLHGLQLRPYASVGIAMFHAGLSAEQFYRRAVSAAVTARRKGKNQIEFFDPEQMEKAQRRLMEEHDIMTALDNQQFAIWLQPQVACASGEICGAEVLLRQRQADGSWSLPPSLIERIESCGLIIPVGYWVMEEACRQLAAWQSQGIMLPLSVNVSLLQLLEHDRGEEMLKLIARYRIAPGTLILEVTESCRMDDPQDVMARLRPLREAGVQIALDDFGMGYAGLHQLQQMKALPVDILKIDKVFIDMLPEDVSMVPAMIQLARGLSLRIVAEGVENDAQRRWLQAAGVEVLQGHLFGCALPQEAFSARYLSPAREDVNL
- protein production: failed

Sequence: MAMVFCRGCAKEIHETALNCPQCGASQFPATPVKQLQENGSPWMAITSLVLGILCSLALFDDGEWDLETIVGLGMCSVAGLALGIVSINKKMPGYGIAIAGTVLSAVSLLVFFGLIVN
- protein production: failed

Sequence: MAMVVGVAMGNIALGAETVGQINEAYKTKPMLKKPLDECSMRYKTIVDVDVHTAIISIKGNPKFAEGAVVDAGVEASICEGGFTKGQSPLTSLTQRMEKICDVTRAIIRMLL
- protein production: failed

Sequence: MANKNFSLTVYDSEYMETNNKIYQENMEKKIRTISEFPDKVLLKILSLLPSKDVVATGVLSKRWRSLWKDVKTFRTSSVESLQLKINPSATNKDIQSLVNMAVARSMRELRIEMICKNFELPKSFYMFSQLETVILDKVSLMDPPPDVHLPCLKRLHLLSVNSLTNVMIFTIDVPTLRILSIDNTSGKSRPKGVHGFVINTPSLSVNVVFDNPYKFLAPLGSTQYLSLCSVTSHTTYRPAVFSFIFLDHLELCLCSAEQWNLLTRILNYAPRLRVLQLKLYHKHCVKDTKNLMGNQPDLIPKSLSSHLEILEWRQYNDTAQEREAAKYILANASGLRKATFYTESTEKHGMLKEVRMCGQRFKNMSACVK
- protein production: failed
